Fewer inactive variants are shown than the library holds.
Experiments:
biotinyl-Trp-oxazolone = experiment: self-aminoacylation, catalytic enhancement (BWO) (fold over background); higher = more active; k-Seq, kA / k0A0; sequences stand for … in GGGAAUGGAUCCACAUCUACGAAUUC…UUCACUGCAGACUUGACGAAGCUG
Method in brief: (§1)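 Working in 50 μL HEPES/NaCl/KCl/MgCl2/CaCl2 buffer with 5% acetonitrile at pH 6.9–7.0, mutagenized RNA pools (0.43 μM; 21-nt variable region) were reacted with 2–1250 μM of each biotinyl-aminoacyl-oxazolone for 90 minutes at room temperature. Streptavidin capture followed, with quantification by triplicate qPCR and Illumina sequencing. Catalytic enhancement is reported as median kA over the uncatalyzed rate, the low-activity peak of a bimodal Gaussian fit to the data.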

biotinyl-Leu-oxazolone = experiment: self-aminoacylation, catalytic enhancement (BLO) (fold over background); higher = more active; k-Seq, kA / k0A0; sequences stand for … in GGGAAUGGAUCCACAUCUACGAAUUC…UUCACUGCAGACUUGACGAAGCUG
Method in brief: as §1

biotinyl-Met-oxazolone = experiment: self-aminoacylation, catalytic enhancement (BMO) (fold over background); higher = more active; k-Seq, kA / k0A0; sequences stand for … in GGGAAUGGAUCCACAUCUACGAAUUC…UUCACUGCAGACUUGACGAAGCUG
Method in brief: as §1

biotinyl-Val-oxazolone = experiment: self-aminoacylation, catalytic enhancement (BVO) (fold over background); higher = more active; k-Seq, kA / k0A0; sequences stand for … in GGGAAUGGAUCCACAUCUACGAAUUC…UUCACUGCAGACUUGACGAAGCUG
Method in brief: as §1

biotinyl-Ile-oxazolone = experiment: self-aminoacylation, catalytic enhancement (BIO) (fold over background); higher = more active; k-Seq, kA / k0A0; sequences stand for … in GGGAAUGGAUCCACAUCUACGAAUUC…UUCACUGCAGACUUGACGAAGCUG
Method in brief: as §1

biotinyl-Phe-oxazolone = experiment: self-aminoacylation, catalytic enhancement (BFO) (fold over background); higher = more active; k-Seq, kA / k0A0; sequences stand for … in GGGAAUGGAUCCACAUCUACGAAUUC…UUCACUGCAGACUUGACGAAGCUG
Method in brief: as §1

Row | Sequence | self-aminoacylation (biotinyl-Trp-oxazolone) | self-aminoacylation (biotinyl-Leu-oxazolone) | self-aminoacylation (biotinyl-Met-oxazolone) | self-aminoacylation (biotinyl-Val-oxazolone) | self-aminoacylation (biotinyl-Ile-oxazolone) | self-aminoacylation (biotinyl-Phe-oxazolone)
1 | AUAACCCUGGUCAUCGGGUGA [Fam2.1 aminoacylation ribozyme variant] | 35.3 | 35.6 | 31.3 | 13.4 | 12.1 | 183
2 | AUAACCCUGGUCAUGGAGUGA [Fam2.1 aminoacylation ribozyme variant] | 4.89 | 4.08 | 4.2 | 2.48 | 2.6 | 14.6
3 | AUAACCGUGGUCAUCGAGUGA [Fam2.1 aminoacylation ribozyme variant] | 6.26 | 5.49 | 5.06 | 2.85 | 2.64 | 25.1
4 | AUAAGCCUGGUCAUCGAGUGA [Fam2.1 aminoacylation ribozyme variant] | 9.48 | 7.06 | 6.25 | 4.25 | 4.71 | 29.4
5 | AUAAUCCUGGUCAUCGAGUGA [Fam2.1 aminoacylation ribozyme variant] | 7.96 | 6.95 | 7.24 | 3.48 | 3.72 | 9.11
6 | AUACAACUAGGUCAUCGGGUG [Fam2.2 aminoacylation ribozyme variant] | 5.27 | 6.09 | 5.2 | 3.22 | 3.32 | 34.4
7 | AUACACAUAGGUCAUCGGGUG [Fam2.2 aminoacylation ribozyme variant] | 6.66 | 6.21 | 5.61 | 3.83 | 3.69 | 40.3
8 | AUACACCUAGGCCAUCGGGUG [Fam2.2 aminoacylation ribozyme variant] | 3.66 | 3.51 | 2.42 | 2.32 | 2.73 | 12.9
9 | AUACACCUAGGUCAUCCGGUG [Fam2.2 aminoacylation ribozyme variant] | 5.38 | 6.81 | 3.91 | 3.14 | 3.5 | 30.6
10 | AUACACCUAGGUCAUCGGGUC [Fam2.2 aminoacylation ribozyme variant] | 1.18 | 1.57 | 1.31 | 1.29 | 1.08 | 7.44
11 | AUACACCUAGGUCAUUGGGUG [Fam2.2 aminoacylation ribozyme variant] | 3.17 | 2.14 | 2.36 | 2.24 | 2.02 | 13.3
12 | AUACACCUAGGUCCUCGGGUG [Fam2.2 aminoacylation ribozyme variant] | 3.71 | 3.48 | 2.71 | 3.57 | 3.44 | 21.8
13 | AUACACCUAGGUCUUCGGGUG [Fam2.2 aminoacylation ribozyme variant] | 2.64 | 3.72 | 2.71 | 3.04 | 2.7 | 23.2
14 | AUACACCUAGUUCAUCGGGUG [Fam2.2 aminoacylation ribozyme variant] | 3.48 | 1.78 | 1.73 | 2.19 | 2.33 | 4.89
15 | AUACACUUAGGUCAUCGGGUG [Fam2.2 aminoacylation ribozyme variant] | 5.82 | 6.18 | 5.5 | 3.3 | 3.82 | 36.6
16 | AUACAUCUAGGUCAUCGGGUG [Fam2.2 aminoacylation ribozyme variant] | 5.51 | 4.8 | 4.39 | 2.85 | 3.19 | 24.4
17 | AUACUCCAAACAAUCGGUCUG [Fam1A.1 aminoacylation ribozyme variant] | 1.61 | 0.534 | 0.759 | 0.743 | 0.827 | 1.98
18 | AUACUUCAAACAAUCGGACUG [Fam1A.1 aminoacylation ribozyme variant] | 2.34 | 0.522 | 0.548 | 0.666 | 0.748 | 3.32
19 | AUACUUCAAACAAUCGGUUUG [Fam1A.1 aminoacylation ribozyme variant] | 9.98 | 1.14 | 0.91 | 1.06 | 1.05 | 12.9
20 | AUACUUCAAACAAUGGGUCUG [Fam1A.1 aminoacylation ribozyme variant] | 0.934 | 0.847 | 0.862 | 0.921 | 0.935 | 0.774
21 | AUACUUCAAACACUCGGUCUG [Fam1A.1 aminoacylation ribozyme variant] | 0.981 | 0.917 | 0.83 | 0.821 | 1.06 | 1.31
22 | AUACUUCAAACAUUCGGUCUG [Fam1A.1 aminoacylation ribozyme variant] | 1.11 | 1.09 | 1.09 | 1.1 | 1.18 | 1.19
23 | AUACUUCACACAAUCGGUCUG [Fam1A.1 aminoacylation ribozyme variant] | 0.814 | 0.683 | 0.927 | 0.861 | 0.901 | 1.15
24 | AUAGCCCUGGUCAUCGAGUGA [Fam2.1 aminoacylation ribozyme variant] | 21.6 | 20.3 | 19.9 | 7.53 | 8.62 | 78.5
25 | AUCAACCUAGGUCAUCGGGUG [Fam2.2 aminoacylation ribozyme variant] | 7.85 | 10.2 | 7.11 | 5.02 | 4.88 | 36.3
26 | AUCACCAUGGUCAUCGAGUGA [Fam2.1 aminoacylation ribozyme variant] | 13.2 | 11.7 | 10.3 | 5.56 | 5.49 | 58.9

Row | Sequence | self-aminoacylation (biotinyl-Trp-oxazolone) | self-aminoacylation (biotinyl-Leu-oxazolone) | self-aminoacylation (biotinyl-Met-oxazolone) | self-aminoacylation (biotinyl-Val-oxazolone) | self-aminoacylation (biotinyl-Ile-oxazolone) | self-aminoacylation (biotinyl-Phe-oxazolone)
27 | AUCACCCGGGUCAUCGAGUGA [Fam2.1 aminoacylation ribozyme variant] | 8.12 | 7.28 | 7.5 | 4.32 | 3.65 | 51.8
28 | AUCACCCUGGACAUCGAGUGA [Fam2.1 aminoacylation ribozyme variant] | 8.8 | 10.4 | 9.05 | 4.56 | 3.98 | 68.7
29 | AUCACCCUGGUAAUCGAGUGA [Fam2.1 aminoacylation ribozyme variant] | 13.6 | 11.3 | 11.2 | 4.82 | 4.92 | 95.4
30 | AUCACCCUGGUCAUGGAGUGA [Fam2.1 aminoacylation ribozyme variant] | 6.96 | 6.86 | 6.29 | 3.58 | 3.54 | 34
31 | AUCACCCUGGUCAUUGAGUGA [Fam2.1 aminoacylation ribozyme variant] | 12.9 | 13 | 11.3 | 5.8 | 5.63 | 75.1
32 | AUCACCCUGGUUAUCGAGUGA [Fam2.1 aminoacylation ribozyme variant] | 12.2 | 13.5 | 12 | 5.37 | 4.98 | 86.5
33 | AUCAGCCUGGUCAUCGAGUGA [Fam2.1 aminoacylation ribozyme variant] | 6.36 | 4.62 | 4.28 | 3.49 | 3.99 | 32.5
34 | AUCCACCUACGUCAUCGGGUG [Fam2.2 aminoacylation ribozyme variant] | 4.86 | 6.58 | 6.46 | 3.75 | 4.29 | 41.3
35 | AUCCACCUAGGUCAUCGCGUG [Fam2.2 aminoacylation ribozyme variant] | 8.63 | 13.9 | 8.4 | 7.73 | 7.45 | 88.1
36 | AUCCACCUAGGUCAUCGGGUG [Fam2.2 aminoacylation ribozyme variant] | 25 | 42 | 32.1 | 17 | 18.4 | 240
37 | AUCCACCUAGGUCGUCGGGUG [Fam2.2 aminoacylation ribozyme variant] | 2.22 | 3.5 | 2.62 | 2.56 | 2.36 | 9.53
38 | AUCCAGCUAGGUCAUCGGGUG [Fam2.2 aminoacylation ribozyme variant] | 7.36 | 6.74 | 5.63 | 6.15 | 4.76 | 47.5
39 | AUCCGCCUAGGUCAUCGGGUG [Fam2.2 aminoacylation ribozyme variant] | 16.4 | 18.5 | 15.9 | 10.1 | 10.3 | 120
40 | AUGACCCUGAUCAUCGAGUGA [Fam2.1 aminoacylation ribozyme variant] | 6.06 | 5.85 | 5.56 | 2.84 | 2.73 | 19.5
41 | AUGACCCUGGCCAUCGAGUGA [Fam2.1 aminoacylation ribozyme variant] | 6.4 | 7.68 | 5.04 | 3.66 | 3.03 | 32
42 | AUGACCCUGGUCAUAGAGUGA [Fam2.1 aminoacylation ribozyme variant] | 6.89 | 6.95 | 7.12 | 3.59 | 3.35 | 46.6
43 | AUGACCCUGGUCAUCGAGCGA [Fam2.1 aminoacylation ribozyme variant] | 2.48 | 3.09 | 2.99 | 2.31 | 2.2 | 3.71
44 | AUGACCCUGGUCAUCGAGUGA [Fam2.1 aminoacylation ribozyme variant] | 51.6 | 55.8 | 58.9 | 19.3 | 18.6 | 451
45 | AUGACCCUGGUCAUCGAGUGC [Fam2.1 aminoacylation ribozyme variant] | 4 | 6.92 | 7.15 | 2.96 | 2.61 | 17.4
46 | AUGACCCUGGUCAUCGAGUGG [Fam2.1 aminoacylation ribozyme variant] | 20.9 | 31 | 30 | 8.22 | 7.48 | 215
47 | AUGACCCUGGUCAUCGGGUGA [Fam2.1 aminoacylation ribozyme variant] | 94.9 | 99 | 90.6 | 35.1 | 31.9 | 571
48 | AUGACCCUGGUCAUGGAGUGA [Fam2.1 aminoacylation ribozyme variant] | 4.08 | 4.81 | 4.69 | 2.73 | 2.56 | 26.2
49 | AUGACCCUGGUCUUCGAGUGA [Fam2.1 aminoacylation ribozyme variant] | 6.19 | 6.24 | 5.04 | 2.95 | 2.9 | 30.4
50 | AUGACCCUGUUCAUCGAGUGA [Fam2.1 aminoacylation ribozyme variant] | 6.05 | 5.72 | 4.75 | 3.03 | 3.16 | 17.7
51 | AUGAUCCUGGUCAUCGAGUGA [Fam2.1 aminoacylation ribozyme variant] | 9.32 | 9.67 | 9.84 | 4.44 | 4.83 | 14
